Experimental data published in the DeepSol protein solubility set.

assay: soluble on expression in E. coli; label from the status in PepcDB or PDB records

Question: For “MAGDPMYKIGIDVGGTNTDAVILDHQLNLIHSVKVPTTDDIQTGIAGALNKVLAESAVDPTKVTHAMLGTTQCTNAIVERKKLAKVGVLRLGYPATASVLPYTAWPKDLVATLSETYALAHGGYEYDGQPLTALDEEELRGILASWRGEVEAIAVIGVFSSLKNDQELFVQALAKEVLGADVPVSCSSMIGSVGLIERENATILNAALHKVIKVTSEGFEQALEQEKIHHAQVYLCQNDGTLMSLTYAKQFPILTIACGPTNSIRGASYLAGLKDAVVLDVGGTTSDIGVLVDGFPRESSLAVDVGGVRTNFRMPDIVSIGVGGGSLVREQPDGSVTVGPDSVGYRITQEALVFGGTQLTTTDIAVRLGHAQVGDPSKVAHLDQAFAEKVYQKIGELVSEAIDRMKTSSADVTVVLVGGGSIIIPEELTGVKALIRNKNGAVANAIGASIAQISGQYEQIYVYSKIQRDAALTDAQEKAVQQAELAGAVPGTIELVEVEETPLAYHPENATRLRVKVVGNMYLEHHHHHH”, which “soluble on expression in E. coli” value is on record?
Answer: soluble

Question: With “MAAQKSALILLPPEDAEEIEVIVTGDVLVRGGLQVLYAGSSTEPVKCAKGARIVPDVALKDVKNKTFDIIIIPGGPGCSKLAECPVIGELLKTQVKSGGLIGAICAGPTVLLAHGIVAERVTCHYTVKDKMTEGGYKYLDDNVVISDRVITSKGPGTAFEFALKIVETLEGPEKTNSLLKPLCLAK” as the sequence, how does the “soluble on expression in E. coli” value read?
Answer: not soluble

Question: With “MYRMDKYTIGLIRVITLEDKEILNLHGRIIESAFPELKVVSRCIEDQPKGIYNEETEREAEPKIIRLAKEFEREGVDAIIISCAADPAVEKVRKLLSIPVIGAGSSVSALALAYGRRVGVLNLTEETPKVIRSILGNNLIAEDHPSGVSNTLDLLTDWGRREVINAAKRLKEKGVEVIALGCTGMSTIGIAPVLEEEVGIPVIDPVIASGAVALHALKRREVKRFEGR” as the sequence, how does the “soluble on expression in E. coli” value read?
Answer: soluble

Question: Which “soluble on expression in E. coli” value does the source give for “MGSDKIHHHHHHVQDKNFDKLAQKFAKNIYGTPKGDIRAAVLWRDLAPALAKLGDRKLRVLDAGGGFGYFSQKLARLGHEVVLCDISAEMLAQAQEQIDASPEPLAIQLIHAPIQALSVEQHGYFDIILCHAVVEWLTDAKPTMAGLLTMLKPAGLFSLMFYNKEAMRFHALVSGNFDYVAADLKVKKKVQLTPTHPLYIQEVKEWFSDWQMSLISQSGVRVIHDYLKKSQPVDFDYQKLLQMELEYSQREPYISLGRYVHFLGQSPAV” here?
Answer: not soluble

Question: For “DPVSDITDLNYWKTPEQFDSFVFGLHSRFRSHSWNMFLLGEARSDVFGGIPFGGEATQGMERFPYNTLNAENPGISGFGDLYQNINQMNLFISRTLHTDVLTESARNYYLGQVYGLRAYYMYQLYRSWGDVVFTEEPSLGFEVGKLAKAATPAAEIFEQVKKDIESSLSYFGSDYTIKEKKSLWSKAATLMLKADVYLWSAHRDGGEGDARTAKNALVDIQNNISRSNLDLMDTYQGVFAYDNKGNKEIIFTIHNELFEYNLWNGNNDLFPQADYLGKFYNADGTLINTSVENNFGIMRLMVKLENFKKFLPGDTRRDVTLKDVYNKVENGKLELVGVYPHKYWGVMNGSTRVRCDDYPIYRYSDLLLMLAEAKVLLGEDPATEINRVRRRAFGDAYDASTVGFPNQEVDKRPADAVLQERLFEFMLEGKRWYDLRRFGDSYVLDYTPAEPARLLWPINQGALTNNPLLKQTVGY”, which “soluble on expression in E. coli” value is on record?
Answer: soluble

Question: With “MEEAKNMALLFFMDHLMQKNGRRTIHDLSCQFGARGFSEEMRNAVGTTQEGLTEFLQGHPSLFTVEGDQVILNGHNDLNAKNNPLLQSGIRSRNYEKEAVDFFVTKLTKFGPELQIKSLLGHRSQAAPEVRLVSGRHLKEFCEFLQSQVDYFVVEGDRVRLKNMPEPDENAIEMDDEGRPLAGVKAKQAAVEYLKSVLEQNEDQPIPLDQFYQNFCQRFSHTIRQDVATNPKELLQFLKLNRGLFFIRSNKVSLVKNRLNEDGSENGSDEGEETNNNGMFPLDQSALTRIHFVKALKPAQDLISRLWQDINNMEKKVVGLDLKTVTVGVDGEIFLSLGVIATTSQIGIFDLASSDVIILESGFKGILESEKVVKVIHDARRVASLLAHKYAVHMRNVFDTQVAHSLLQHEKFNKSLNEMRPISFINLQRVYYPQSIMLSDVTPRKMSMCPNWGVRPITEEFQLTIVEEAHCLLSALYQSLSNLIPVHLRGVFEDKCIEVNHPEVLLASPNRPPPQPFISSPYRASTRRDVRNGGSIMQSFSPAPYAAAPRPQMSDACTQTFSTGDIEVLNVFYE” as the sequence, how does the “soluble on expression in E. coli” value read?
Answer: not soluble

Question: For “GMTDQSVRIIEAALRLYMKKPPHEVSIEEIAREAKVSKSLIFYHFESKQKLLEEAVMHAFRKMMEEFNPRSVEEVVDYGIGFIAERREFIEFMMYALSQVRIEELERMFGEALEKVASLFEGCRHPRETAIALMAMLDGLSIYSLYFDLGKLEKYREIAMEFVESRRVRA”, which “soluble on expression in E. coli” value is on record?
Answer: soluble

Question: For “MKIGFIGAGSMGGAMIKGLLKAEAVKKEHLYVKGGSSGTAEALQKEWGFQLVTDYALFQECKVIFIATGAKVVLPVLQELAPHFSNESLLISVATGHTIQEAQMALGNKEAKVVHAIPNTPVSVNQGVIGVALAPTIEGQTKDLAMELLATLGLVKEIREAQLETFGTVAGCSPAFVDIFMEALGDAAVLEGLPRDLSYEIVAQMIKGTATLALDTKKHPGALKDEVTSPGGSTIRGVVALEKNGFRYAVMDAVQQANHE”, which “soluble on expression in E. coli” value is on record?
Answer: soluble

Question: For “MIRQLSLKDYEGVAGSALIDEIRSLGESLQGYNVRHINSTIIGGGVAEILSSLVPLMEDVGLTVNWEVLAGTTEFFHTTKLFHNGMHGQPVNITGEMLENYLAIAQKNQNLLDGDADLVVIHDQQPLGLTAFRGRTRGRWLWYCHVDPRYAVPEVWYFLAPMVATCDAAVFHLPEYARDLPVLQYFMPPAIDPLSDKLEHHHHHH”, which “soluble on expression in E. coli” value is on record?
Answer: soluble

Question: For “MKNNNLSDARKEKGLTQQELAEKLQVRKSTVSNWETGYSSPGISTAIQTAIILDKDVSFLFGNKVQETHTRVRD”, which “soluble on expression in E. coli” value is on record?
Answer: not soluble

Question: Which “soluble on expression in E. coli” value does the source give for “MGMFERDTEIYLDRDALREDYQPENLVGRDTELNRYRAALQPVINGEQPNNIFLYGKTGVGKTAGTRYLIDHLEEDAAKYEDIDLTVKMLNCDGLSSSYQIATRLVNEFRDETSQISTTGYPRATVYDMLWTELDSCGGTIYIVLDEVDHIEDDSILYQLPRARANDNLSSAKIGIIGISNDFSFRDDLSPKVKSSLCEEEIQFPA” here?
Answer: not soluble

Question: For “MGSDKIHHHHHHAEPVADPMEEEGISVVRYDKLLDEYVRFNSFSALQKMNLEYALPTKLLIEDVLAIGQVSDDHIFQRLKTFYSDTTLVRLIEDVEAKYPELESVEKNLTKGFGKLQKEIPDIMIPMIYTQISAFNESIVLSDSVLGISLDKYMGEDYPLYKRFYYNYQRRTMRPDRIVPDCLVFYLMSQYPFPMDYSRTLLDVMMHYGKINYVVQHLLDYSSSEEALGYSDLEREWCKENQQQMWRYILEQDHLHATDPMVVRQYTRPAPFTNTLGENAPSMVGTWIGTKIITSYMKHHKKTTLRQLLEMSDYERMFTESRFNP”, which “soluble on expression in E. coli” value is on record?
Answer: not soluble

Question: For “MPIKSVAIIGAGIAGLTAALAFARHGIDCDIIEQTGELAEVGAGLQLSPNAARILATLGVLPDIEARWTEPVSVDLASGKSLTTLLSLPMGAVARSRWGAPYGVLHRSTLQSALLQAVTRNPLCRLHLGKRIENATADVIAATTFRDHDLIVGADGVWSAARFSVPAAPTATFSGNVAWRFTVAAEEVPSAFNKTTVTAYLGSRGHIVAYPLKEVGGFNIVAIALGADPGATWRAESSGRQKALLLEQFRDFSPDIVRLLDSSENPTFWPLYQAGPGRWHNGRDTVLIGDAAHAMMPFAAQGAAMAIEDAFELAGTMAGSNGEKPLPVPQALAAFEALRLPRIEKARKRASLNRFAYHARGPVRIARDLVFSTRPPEAFLKDFDWLYGYHARGLEHHHHHH”, which “soluble on expression in E. coli” value is on record?
Answer: soluble

Question: Which “soluble on expression in E. coli” value does the source give for “MDKQSLHETAKRLALELPFVELCWPFGPEFDVFKIGGKIFMLSSELRGVPFINLKSDPQKSLLNQQIYPSIKPGYHMNKKHWISVYSGEEISEALLRDLINDSWNLVVDGLAKRDQKRVRPG” here?
Answer: not soluble

Question: Which “soluble on expression in E. coli” value does the source give for “SNAMRVLTGLQPSGDLHIGNYFGAIKQMVDAQEKSQMFMFIANYHAMTSSQDGEKLKQNSLKAAAAFLSLGIDPQKSVFWLQSDVKEVMELYWILSQFTPMGLLERAHSYKDKVAKGLSASHGLFSYPVLMAADILLFDTRIVPVGKDQIQHVEIARDIALKVNNEWGEIFTLPEARVNEEVAVVVGTDGAKMSKSYQNTIDIFSSEKTLKKQISSIVTDSTALEDPKDHENCNIFKIAKLFLDESGQKELQIRYEKGGEGYGHFKIYLNELVNAYFKEAREKYNELLEKPSHLKEILDFGATKARKIAQEKMQKIYEKIGL” here?
Answer: soluble

Question: For “MGSDKIHHHHHHMKIAFVSTRGIPNNYGGFEQFAEYISVGMAQRGHEVVVYSPKFHPYQESTYKGVRIKHIYSPETWMGSSVGSFFYDFASLRDALKKEDFDIIYEAGYTSIIPAYIWFNVKKRKRPIFTTNMDGLENKRSKFSPMVRRFLDWEEKMAVKYSHYLIADNMGIHDYYKEKYGKESKFLAYGADIHDDFKAEYLEEFGLKSEEYYILIARLEPENNIVMAIEGYLHSKENGRRPLIVVGKTNTPHGKELVEKYGNERNVEFVGGIYDFKKLDSVRHFSKAYFHGHSVGGTNPSLLEAMAAGCFIFAHDNIFNRAVLKENAFYYPSADKVTEYLNRIDTIAEGSKIQYTARNIEVIRNEYSWESLIDKHEKYFYWLLSQKQ”, which “soluble on expression in E. coli” value is on record?
Answer: not soluble

Question: For “MSLKITQIQAQNKNKNRRNVFVDGSYEFSCDMEIILKYKLKEGLEIDRTKLLQVIDQSKEEFAFRLALNYLSFKSRTSFEIYTYLLKKEYEEKIIEKVIEKLKYYRYVDDNQYVLNYIKTALAEGKKGKDRVQSDLINKKIPQDMIESHMHLFSCETNLEIAKELSNKYFKQNAHLPFNQFKNKLSQFLMRKGFNWEIINTCLNILEQDSEEGHHHHHH”, which “soluble on expression in E. coli” value is on record?
Answer: soluble

Question: For “MSLSALFCQAAAVAVTISGFAFSPAQTTVQVGDVITWTNMDNTLHSIVSTAVPAGAAPFTSGTFGKNETFTYTVTEAGDYTYQCGVHTSMLGAFTATITTPVVKPTLILEALYPNPASASIHIESPKSIKSIDIYSETGVLVKTLAFTSASVDVPIGELNKGAYLLRITSEDGMFDTRRIIKEGHHHHHH”, which “soluble on expression in E. coli” value is on record?
Answer: soluble

Question: With “MSQANANFLDNSKVSANKTAESGQLKEFRTPPHNLAIEQAVLAALMTVAESFEQVNDLLKENDFYATRHKYIFRAIEKLAQENSPYDAVLVNDWLLKQNLLDAIGGEEYLMQLMADSPSSFYNLETYASKIKEFSTLRSMIKVSSDILQNAYDTKGRPVSEILDLAETSIFSLAEQHNNNKKDAGPKSISSVTADVISKLDELSKLDGNITGLTTGFLELDNKTYGMQSGDMIIVAARPSMGKTTFAMNLVESVLFNCNLPALVFSMEMPADSIAMRLISSYGKVHQGHLRSGKLDGDEWSKVTGTILQLQEKHLYIDDSSALPPTELRARARRIAKQHGGKLGCIMIDYLQLMKVPGMGDNRVGEIGEISRSLKALAKEMDCPVIALSQLNRSLENRPNKRPVMSDLRESGAIEQDADLIMFIYRDEVYNKESKEAGTAEIIIGKQRNGPIGTVRLAFEGQYTRFSNLSPEYYSQYDDEE” as the sequence, how does the “soluble on expression in E. coli” value read?
Answer: not soluble

Question: Which “soluble on expression in E. coli” value does the source give for “MESKEERALNNLIVENVNQENDEKDEKEQVANKGEPLALPLNVSEYCVPRGNRRRFRVRQPILQYRWDIMHRLGEPQARMREENMERIGEEVRQLMEKLREKQLSHSLRAVSTDPPHHDHHDEFCLMP” here?
Answer: soluble
